The text below walks through data of paper PMC3393750, “Small Molecule Inhibitors of the LEDGF Site of Human Immunodeficiency Virus Integrase Identified by Fragment Screening and Structure Based Design” (PLoS ONE, 2012).

To fix the notation:
B1: Hexa-His tagged full length HIV IN (enzyme)
chain: FLDGIDKAQEEHEKYHSNWRAMASDFNLPPVVAKEIVASCDKCQLKGEAMHGQVDCSPGIWQLDCTHLEGKVILVAVHVASGYIEAEVIPAETGQETAYFLLKLAGRWPVKTVHTDNGSNFTSTTVKAACWWAGIKQEFGIPYNPQSQGVIESMNKELKKIIGQVRDQAEHLKTAVQMAVFIHNFKRKGGIGGYSAGERIVDIIATDIQTKELQKQITKIQNFRVYYRDSRDPVWKGPAKLLWKGEGAVVIQDNSDIKVVPRRKAKIIRDYGKQMAGDDCVASRQDED
notes: HIV-1 integrase, the cut product of the Gag-Pol polyprotein; also called His6-tagged IN; HIV integrase; source: E. coli BL21(DE3), purified (nickel HiTrap column)

Assay [1] deals with T1, FLAG epitope tagged LEDGF protein (UniProt O75475 1-530).
T1 construct: lens epithelium derived growth factor (LEDGF/p75), coded by the PSIP1 gene; also called FLAG-LEDGF; Flag-tagged LEDGF; source: E. coli BL21(DE3), purified (heparin column, SP column); not shown: FLAG, N-terminal, kept
Nature of the assay: AlphaScreen or HTRF; His6-tagged IN (30 nM) on Ni-chelate donor beads, Flag-tagged LEDGF (30 nM) on anti-FLAG acceptor beads; 25 mM Tris-Cl pH 7.5, 25 mM NaCl, 5 mM MnCl2, 5 mM MgCl2, 5 mM BME, 50 ug/ml BSA, 0.05% Tween-20; 1 hour at 30°C; competition with untagged LEDGF. The following applies: both partners purified. In general terms: Bead proximity is the source of the signal in Alpha formats.

The target in assay [2] is B1. The assay is described as above. The following applies: both partners purified.

For the molecule B1, in assay [1], the binding result is given as “binds”.

B2: Untagged LEDGF (natural protein)
chain: not shown
notes: lens epithelium derived growth factor (LEDGF/p75), coded by the PSIP1 gene; source: E. coli, purified as described for FLAG-LEDGF
B2: the “percent reduction of the AlphaScreen signal at a 1:1 molar ratio with FLAG-LEDGF” value in assay [2] turned out to be 50%.
